Paper PMC2175261 (The Journal of Cell Biology, 2000)
Read-outs that look alike come from different tables or passages of the source.

Key:
pull-down [1] = target: the molecule itself; experiment: pull-down
pull-down [2] = target: the molecule itself; experiment: pull-down; remark: listed apart in the source

Row | Protein | binding result (pull-down [1]) | binding result (pull-down [2])
1 | C2B domain of synaptotagmin Ib (residues 248–421) (domain or fragment, rat, UniProt P21707 248-421, looked up) NTVDFGHVTEEWRDLQSAEKEEQEKLGDICFSLRYVPTAGKLTVVILEAKNLKKMDVGGLSDPYVKIHLMQNGKRLKKKKTTIKKNTLNPYYNESFSFEVPFEQIQKVQVVVTVLDYDKIGKNDAIGKVFVGYNSTGAELRHWSDMLANPRRPIAQWHTLQVEEEVDAMLAVKK | binds | –
2 | cytoplasmic domain of synaptotagmin Ib, D230,232N mutant (domain or fragment, rat, UniProt P21707 96-421, looked up) GGKNAINMKDVKDLGKTMKDQALKDDDAETGLTDGEEKEEPKEEEKLGKLQYSLDYDFQNNQLLVGIIQAAELPALDMGGTSDPYVKVFLLPDKKKKFETKVHRKTLNPVFNEQFTFKVPYSELGGKTLVMAVYNFNRFSKHDIIGEFKVPMNTVDFGHVTEEWRDLQSAEKEEQEKLGDICFSLRYVPTAGKLTVVILEAKNLKKMDVGGLSDPYVKIHLMQNGKRLKKKKTTIKKNTLNPYYNESFSFEVPFEQIQKVQVVVTVLDYDKIGKNDAIGKVFVGYNSTGAELRHWSDMLANPRRPIAQWHTLQVEEEVDAMLAVKK | – | binds
